This data set concerns the molecule itself. Put plainly: cryo-EM structure; purified SLC26A7 in 25 mM Tris pH 8.0, 150 mM NaCl, 0.02% GDN, 5-10 mg/ml; apo sample and sample with 20 mM sodium iodide; dimer model obtained by C2 symmetry.

Here are results for one protein from publication PMC12356840, “Structural basis for substrate recognition mechanism of human SLC26A7” (Nature Communications, 2025).

B1: human SLC26A7 (solute carrier family 26 member 7) (natural protein, UniProt Q8TE54 1-656, looked up)
chain: MTGAKRKKKSMLWSKMHTPQCEDIIQWCRRRLPILDWAPHYNLKENLLPDTVSGIMLAVQQVTQGLAFAVLSSVHPVFGLYGSLFPAIIYAIFGMGHHVATGTFALTSLISANAVERIVPQNMQNLTTQSNTSVLGLSDFEMQRIHVAAAVSFLGGVIQVAMFVLQLGSATFVVTEPVISAMTTGAATHVVTSQVKYLLGMKMPYISGPLGFFYIYAYVFENIKSVRLEALLLSLLSIVVLVLVKELNEQFKRKIKVVLPVDLVLIIAASFACYCTNMENTYGLEVVGHIPQGIPSPRAPPMNILSAVITEAFGVALVGYVASLALAQGSAKKFKYSIDDNQEFLAHGLSNIVSSFFFCIPSAAAMGRTAGLYSTGAKTQVACLISCIFVLIVIYAIGPLLYWLPMCVLASIIVVGLKGMLIQFRDLKKYWNVDKIDWGIWVSTYVFTICFAANVGLLFGVVCTIAIVIGRFPRAMTVSIKNMKEMEFKVKTEMDSETLQQVKIISINNPLVFLNAKKFYTDLMNMIQKENACNQPLDDISKCEQNTLLNSLSNGNCNEEASQSCPNEKCYLILDCSGFTFFDYSGVSMLVEVYMDCKGRSVDVLLAHCTASLIKAMTYYGNLDSEKPIFFESVSAAISHIHSNKNLSKLSDHSEV
notes: full-length wild-type human SLC26A7 (also known as SUT2), UniProt Q8TE54; Homodimer (domain-swapped) in the cryo-EM structures; both were used to capture the protein on the way to the structure; The iodide-loaded sample had 20 mM sodium iodide throughout the purification; also called SUT2; SLC26A7_apo
Take B1: the stoichiometry N (as a rule, the number of molecules, sites or subunits per partner or assembly) stood at 2.
